This passage reports Reading results from patent US20230174659A1 (GENERAL HOSPITAL, published 2023).

Assay [1] addresses T1, Amino acid residues 108-127 of human TNFR2 (human).
T1 sequence (peptide): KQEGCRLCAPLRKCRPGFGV
As to the kind of experiment: ELISA on plate-coated linear peptide S03935; Affinity cell of this row is '2+-'. In general terms: ELISA stands for enzyme-linked immunosorbent assay.

In assay [2] the target is T2, Amino acid residues 106-125 of human TNFR2 (human).
T2 sequence (peptide): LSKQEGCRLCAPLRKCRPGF
Nature of the assay: ELISA on TNFR2 peptide, antibody alone; Affinity cell of this row is '-'.

In assay [3] the target is T3, Amino acid residues 66-85 of human TNFR2 (human).
T3 sequence (peptide): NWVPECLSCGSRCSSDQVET
The assay is described as above.

The target of assay [4] is T4, Amino acid residues 82-101 of human TNFR2 (human).
T4 sequence (peptide): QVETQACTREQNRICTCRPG
Described as above.

The target in assay [5] is T5, Amino acid residues 74-93 of human TNFR2 (human).
T5 sequence (peptide): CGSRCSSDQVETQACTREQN
Described as above.

B1: agonistic TNFR2 antibody TNFRAG1 (antibody, V domains shown)
VH: EVQLQQFGAELVKPGASVKISCKASGYTFTDYNIDWVKQSHGKSLEWIGDINPNYDSTSYSQKFRGKATLTVDKSSSTAYMELRSLTSEDTAVYYCARGNSWYFDVWGAGTTVTVSS
VL: QIVLTQSPALMSASPGEKVTMTCSASSSVRYMYWYQQKPRSSPKPWIYLTSNLASGVPARFSGSGSGTSYSLTISSMEAEDAATYYCQQWSSNPLTFGAGTKLELK
notes: It was detected with secondary antibodies against rodent IgG; also called monoclonal TNFR2 antibody TNFRAG1; TNFR2 agonist antibody
Turning to B1, the Reading in assay [1] came out at 0; in assay [2] it was 2; in assay [3] it was 2; in assay [4] it was 2; in assay [5], 2.
